Consider 4 molecules from article PMC10657434, “Architecture of the baculovirus nucleocapsid revealed by cryo-EM” (Nature Communications, 2023).

B3: AC104 (VP80) (natural protein)
chain: MNDSNSLLITRLAAQILSRNMQTVDVIVDDKTLSLEEKIDTLTSMVLAVNSPPQSPPRVTSSDLAASIIKNNSKMVGNDFEMRYNVLRMAVVFVKHYPKYYNETTAGLVAEIESNLLQYQNYVNQGNYQNIEGYDSLLNKAEECYVKIDRLFKESIKKIMDDTEAFEREQEAERLRAEQTAANALLERRAQTSADDVVNRADANIPTAFSDPLPGPSAPRYMYESSESDTYMETARRTAEHYTDQDKDYNAAYTADEYNSLVKTVLLRLIEKALATLKNRLHITTIDQLKKFRDYLNSDADAGEFQIFLNQEDCVILKNLSNLASKFFNVRCVADTLEVMLEALRNNIELVQPESDAVRRIVIKMTQEIKDSSTPLYNIAMYKSDYDAIKNKNIKTLFDLYNDRLPINFLDTSATSPVRKTSGKRSAEDDLLPTRSSKRANRPEINVISSEDEQEDDDVEDVDYEKESKRRKLEDEDFLKLKALEFSKDIVNEKLQKIIVVTDGMKRLYEYCNCKNSLETLPSAANYGSLLKRLNLYNLDHIEMNVNFYELLFPLTLYNDNDNSDKTLSHQLVNYIFLASNYFQNCAKNFNYMRETFNVFGPFKQIDFMVMFVIKFNFLCDMRNFAKLIDELVPNKQPNMRIHSVLVMRDKIVKLAFSNLQFQTFSKKDKSRNTKHLQRLIMLMNANYNVI
notes: AC104 (VP80) of AcMNPV, as present in the native nucleocapsid; only Ile490-Thr664 and Asn673-Asn685 (AC104-1, AC104-2) and Asp463-Ile691 (AC104-3) are resolved and modelled; also called AC104-1; AC104-2; source: AcMNPV ODV nucleocapsids from occlusion bodies of infected Spodoptera exigua larvae; alkaline lysis, centrifugation

Data set [1] deals with the molecule itself. The data set can be described thus: cryo-EM structure; head and base of native AcMNPV ODV nucleocapsids; local refinement 4.3 Å (elements common to both ends), 4.8 Å (base with AC98), 4.9 Å (plug); AlphaFold2 models docked into density and refined; partners co-purified as the native nucleocapsid.
Data set [2] concerns the molecule itself. The experiment in a line: cryo-EM structure; helical cylinder of native AcMNPV ODV nucleocapsids; helical reconstruction 3.9 Å, local refinement 3.2 Å; VP39 model built de novo; partners co-purified as the native nucleocapsid.
The data set “AC104 (VP80)” concerns the target B3. The data set can be described thus: cryo-EM structure; head and base of native AcMNPV ODV nucleocapsids; local refinement 4.3 Å (elements common to both ends), 4.8 Å (base with AC98), 4.9 Å (plug); AlphaFold2 models docked into density and refined; partners co-purified as the native nucleocapsid. Conditions: both partners purified.
Data set [3] deals with the molecule itself. The data set can be described thus: cross-linking; purified AcMNPV nucleocapsid, 2 mM BS3 on ice 2 h, stopped with 50 mM Tris-HCl pH 7.5; mass spectrometry, pLink2.

B1: AC101 (BV/ODV-C42) (natural protein)
chain: MSAIALYLEINKLRLKIDEPMQLAIWPQLFPLLCDEHQSVQLNTDVLINFMMHVARKSQNTILNNNAAIASQYAAGNADVVAAPASAQPTPRPVINLFARANAAAPAQPSEELINMRRYRNAARKLIHHYSLNSTSSTEYKISDVVMTMIFLLRSEKYHSLFKLLETTFDDYTCRPQMTQVQTDTLLDAVRSLLEMPSTTIDLTTVDIMRSSFARCFNSPIMRYAKIVLLQNVALQRDKRTTLEELLIERGEKIQMLQPQQYINSGTEIPFCDDAEFLNRLLKHIDPYPLSRMYYNAANTMFYTTMENYAVSNCKFNIEDYNNIFKVMENIRKHSNKNSNDQDELNIYLGVQSSNAKRKKY
notes: AC101 (BV/ODV-C42) of AcMNPV, as present in the native nucleocapsid; ~110 N-terminal and ~30 C-terminal residues are not resolved; modelled parts include Glu112-Asn218, Ser219-Thr241 and Leu243-His334; also called BV/ODV-42; AC101-1; source: AcMNPV ODV nucleocapsids from occlusion bodies of infected Spodoptera exigua larvae; alkaline lysis, centrifugation
With B1, in data set [1], the binding result is on record as “binds”.

B2: major capsid protein VP39 (natural protein)
chain: MALVPVGMAPRQMRVNRCIFASIVSFDACITYKSPCSPDAYHDDGWFICNNHLIKRFKMSKMVLPIFDEDDNQFKMTIARHLVGNKERGIKRILIPSATNYQDVFNLNSMMQAEQLIFHLIYNNENAVNTICDNLKYTEGFTSNTQRVIHSVYATTKSILDTTNPNTFCSRVSRDELRFFDVTNARALRGGAGDQLFNNYSGFLQNLIRRAVAPEYLQIDTEELRFRNCATCIIDETGLVASVPDGPELYNPIRSSDIMRSQPNRLQIRNVLKFEGDTRELDRTLSGYEEYPTYVPLFLGYQIINSENNFLRNDFIPRANPNATLGGGAVAGPAPGVAGEAGGGIAV
notes: major capsid protein VP39 of Autographa californica multiple nucleopolyhedrovirus (AcMNPV), as present in the native nucleocapsid; regions described in the model run from Arg14 to Asn320; Native virion protein; forms disulfide-linked dimers arranged as a 14-start helical cylinder; also called VP39A; VP39B; source: AcMNPV ODV nucleocapsids from occlusion bodies of infected Spodoptera exigua …
With B2, the binding result (in data set [2]; in the data set with AC104 (VP80)) was “binds” throughout. Turning to B3, in data set [1], the binding result is reported as “binds”.

B4: polyhedrin (natural protein)
chain: MPDYSYRPTIGRTYVYDNKYYKNLGAVIKNAKRKKHFAEHEIEEATLDPLDNYLVAEDPFLGPGKNQKLTLFKEIRNVKPDTMKLVVGWKGKEFYRETWTRFMEDSFPIVNDQEVMDVFLVVNMRPTRPNRCYKFLAQHALRCDPDYVPHDVIRIVEPSWVGSNNEYRISLAKKGGGCPIMNLHSEYTNSFEQFIDRVIWENFYKPIVYIGTDSAEEEEILLEVSLVFKVKEFAPDAPLFTGPAY
notes: polyhedrin of AcMNPV, left in the nucleocapsid sample after alkaline lysis of occlusion bodies; also called polyhedrins; source: present in the buffer of the AcMNPV nucleocapsid preparation (nucleocapsids not isolated by gradient centrifugation)
For the molecule B4, in data set [3], the binding result is recorded as “binds”.
